Publication PMC8667730

Molecular target: TLR5 protein from pGEX-6p-1 (GST-His*10-TEV-TLR5, digested with TEV protease), used for SPR (silvery pomfret (Pampus argenteus))
Assay: SPR; BIAcore S200; TLR5 immobilised on an SA sensor chip; flaB proteins injected at 30 uL/min in PBS-P, 25°C; 1:1 Langmuir fit

Molecule	Kd
flagellin B (flaB) from Vibrio anguillarum, wild type, recombinant (from UniProt Q56572 1-376) (natural protein)	3.28 µM
flaB mutant F6 (E122, Glu to Ala) (natural protein) MAINVSTNVSAMTAQRYLNNAADGTQKSMERLSSGYKINSARDDAAGLQISNRLTSQSRGLDMAVRNANDGISIAQTAEGAMNETTNILQRMRDLSLQSANGSNSSSERQAIQEEVSALNDALNRIAETTSFGGNKLLNGSFGNKSFQIGADSGEAVMLSMSDMRSDTKAMGGKSYVATNGKAPDWSVTNATDLTLSYTDKQGEAREVTINAKAGDDLEEVATYINGQNGDIKASVGDEGKLQLFAANQKVSSDVTIGGGLGTEIGFAAGKDVTVKDINVTTVGGSQEAVALIDGALKAVDSQRASLGAFQNRFGHAISNLDNINENVNASRSRIKDTDYARETTQMTKSQILQQASTSVLAQAKQSPSAALSLLG	4.4 µM
flaB mutant F7 (D152, Asp to Ala) (natural protein) MAINVSTNVSAMTAQRYLNNAADGTQKSMERLSSGYKINSARDDAAGLQISNRLTSQSRGLDMAVRNANDGISIAQTAEGAMNETTNILQRMRDLSLQSANGSNSSSERQAIQEEVSALNDELNRIAETTSFGGNKLLNGSFGNKSFQIGAASGEAVMLSMSDMRSDTKAMGGKSYVATNGKAPDWSVTNATDLTLSYTDKQGEAREVTINAKAGDDLEEVATYINGQNGDIKASVGDEGKLQLFAANQKVSSDVTIGGGLGTEIGFAAGKDVTVKDINVTTVGGSQEAVALIDGALKAVDSQRASLGAFQNRFGHAISNLDNINENVNASRSRIKDTDYARETTQMTKSQILQQASTSVLAQAKQSPSAALSLLG	71.7 µM
flaB mutant F8 (N312, Asn to Ala) (natural protein) MAINVSTNVSAMTAQRYLNNAADGTQKSMERLSSGYKINSARDDAAGLQISNRLTSQSRGLDMAVRNANDGISIAQTAEGAMNETTNILQRMRDLSLQSANGSNSSSERQAIQEEVSALNDELNRIAETTSFGGNKLLNGSFGNKSFQIGADSGEAVMLSMSDMRSDTKAMGGKSYVATNGKAPDWSVTNATDLTLSYTDKQGEAREVTINAKAGDDLEEVATYINGQNGDIKASVGDEGKLQLFAANQKVSSDVTIGGGLGTEIGFAAGKDVTVKDINVTTVGGSQEAVALIDGALKAVDSQRASLGAFQARFGHAISNLDNINENVNASRSRIKDTDYARETTQMTKSQILQQASTSVLAQAKQSPSAALSLLG	3.8 µM
flaB mutant F9 (R313, Arg to Ala) (natural protein) MAINVSTNVSAMTAQRYLNNAADGTQKSMERLSSGYKINSARDDAAGLQISNRLTSQSRGLDMAVRNANDGISIAQTAEGAMNETTNILQRMRDLSLQSANGSNSSSERQAIQEEVSALNDELNRIAETTSFGGNKLLNGSFGNKSFQIGADSGEAVMLSMSDMRSDTKAMGGKSYVATNGKAPDWSVTNATDLTLSYTDKQGEAREVTINAKAGDDLEEVATYINGQNGDIKASVGDEGKLQLFAANQKVSSDVTIGGGLGTEIGFAAGKDVTVKDINVTTVGGSQEAVALIDGALKAVDSQRASLGAFQNAFGHAISNLDNINENVNASRSRIKDTDYARETTQMTKSQILQQASTSVLAQAKQSPSAALSLLG	14.8 µM
flaB mutant F11 (N320, Asn to Ala) (natural protein) MAINVSTNVSAMTAQRYLNNAADGTQKSMERLSSGYKINSARDDAAGLQISNRLTSQSRGLDMAVRNANDGISIAQTAEGAMNETTNILQRMRDLSLQSANGSNSSSERQAIQEEVSALNDELNRIAETTSFGGNKLLNGSFGNKSFQIGADSGEAVMLSMSDMRSDTKAMGGKSYVATNGKAPDWSVTNATDLTLSYTDKQGEAREVTINAKAGDDLEEVATYINGQNGDIKASVGDEGKLQLFAANQKVSSDVTIGGGLGTEIGFAAGKDVTVKDINVTTVGGSQEAVALIDGALKAVDSQRASLGAFQNRFGHAISALDNINENVNASRSRIKDTDYARETTQMTKSQILQQASTSVLAQAKQSPSAALSLLG	13 µM
flaB mutant F12 (L97, Leu to Asn) (natural protein) MAINVSTNVSAMTAQRYLNNAADGTQKSMERLSSGYKINSARDDAAGLQISNRLTSQSRGLDMAVRNANDGISIAQTAEGAMNETTNILQRMRDLSNQSANGSNSSSERQAIQEEVSALNDELNRIAETTSFGGNKLLNGSFGNKSFQIGADSGEAVMLSMSDMRSDTKAMGGKSYVATNGKAPDWSVTNATDLTLSYTDKQGEAREVTINAKAGDDLEEVATYINGQNGDIKASVGDEGKLQLFAANQKVSSDVTIGGGLGTEIGFAAGKDVTVKDINVTTVGGSQEAVALIDGALKAVDSQRASLGAFQNRFGHAISNLDNINENVNASRSRIKDTDYARETTQMTKSQILQQASTSVLAQAKQSPSAALSLLG	2.41 µM
flaB mutant F13 (H316, His to Ala) (natural protein) MAINVSTNVSAMTAQRYLNNAADGTQKSMERLSSGYKINSARDDAAGLQISNRLTSQSRGLDMAVRNANDGISIAQTAEGAMNETTNILQRMRDLSLQSANGSNSSSERQAIQEEVSALNDELNRIAETTSFGGNKLLNGSFGNKSFQIGADSGEAVMLSMSDMRSDTKAMGGKSYVATNGKAPDWSVTNATDLTLSYTDKQGEAREVTINAKAGDDLEEVATYINGQNGDIKASVGDEGKLQLFAANQKVSSDVTIGGGLGTEIGFAAGKDVTVKDINVTTVGGSQEAVALIDGALKAVDSQRASLGAFQNRFGAAISNLDNINENVNASRSRIKDTDYARETTQMTKSQILQQASTSVLAQAKQSPSAALSLLG	7.29 µM
flaB mutant F14 (I324, Ile to Asn) (natural protein) MAINVSTNVSAMTAQRYLNNAADGTQKSMERLSSGYKINSARDDAAGLQISNRLTSQSRGLDMAVRNANDGISIAQTAEGAMNETTNILQRMRDLSLQSANGSNSSSERQAIQEEVSALNDELNRIAETTSFGGNKLLNGSFGNKSFQIGADSGEAVMLSMSDMRSDTKAMGGKSYVATNGKAPDWSVTNATDLTLSYTDKQGEAREVTINAKAGDDLEEVATYINGQNGDIKASVGDEGKLQLFAANQKVSSDVTIGGGLGTEIGFAAGKDVTVKDINVTTVGGSQEAVALIDGALKAVDSQRASLGAFQNRFGHAISNLDNNNENVNASRSRIKDTDYARETTQMTKSQILQQASTSVLAQAKQSPSAALSLLG	27.5 µM
flaB mutant F1 (Q57, Gln to Ala) (natural protein) MAINVSTNVSAMTAQRYLNNAADGTQKSMERLSSGYKINSARDDAAGLQISNRLTSASRGLDMAVRNANDGISIAQTAEGAMNETTNILQRMRDLSLQSANGSNSSSERQAIQEEVSALNDELNRIAETTSFGGNKLLNGSFGNKSFQIGADSGEAVMLSMSDMRSDTKAMGGKSYVATNGKAPDWSVTNATDLTLSYTDKQGEAREVTINAKAGDDLEEVATYINGQNGDIKASVGDEGKLQLFAANQKVSSDVTIGGGLGTEIGFAAGKDVTVKDINVTTVGGSQEAVALIDGALKAVDSQRASLGAFQNRFGHAISNLDNINENVNASRSRIKDTDYARETTQMTKSQILQQASTSVLAQAKQSPSAALSLLG	0.431 µM
flaB mutant F2 (N83, Asn to Ala) (natural protein) MAINVSTNVSAMTAQRYLNNAADGTQKSMERLSSGYKINSARDDAAGLQISNRLTSQSRGLDMAVRNANDGISIAQTAEGAMAETTNILQRMRDLSLQSANGSNSSSERQAIQEEVSALNDELNRIAETTSFGGNKLLNGSFGNKSFQIGADSGEAVMLSMSDMRSDTKAMGGKSYVATNGKAPDWSVTNATDLTLSYTDKQGEAREVTINAKAGDDLEEVATYINGQNGDIKASVGDEGKLQLFAANQKVSSDVTIGGGLGTEIGFAAGKDVTVKDINVTTVGGSQEAVALIDGALKAVDSQRASLGAFQNRFGHAISNLDNINENVNASRSRIKDTDYARETTQMTKSQILQQASTSVLAQAKQSPSAALSLLG	0.447 µM
flaB mutant F3 (N87, Asn to Ala) (natural protein) MAINVSTNVSAMTAQRYLNNAADGTQKSMERLSSGYKINSARDDAAGLQISNRLTSQSRGLDMAVRNANDGISIAQTAEGAMNETTAILQRMRDLSLQSANGSNSSSERQAIQEEVSALNDELNRIAETTSFGGNKLLNGSFGNKSFQIGADSGEAVMLSMSDMRSDTKAMGGKSYVATNGKAPDWSVTNATDLTLSYTDKQGEAREVTINAKAGDDLEEVATYINGQNGDIKASVGDEGKLQLFAANQKVSSDVTIGGGLGTEIGFAAGKDVTVKDINVTTVGGSQEAVALIDGALKAVDSQRASLGAFQNRFGHAISNLDNINENVNASRSRIKDTDYARETTQMTKSQILQQASTSVLAQAKQSPSAALSLLG	26.2 µM
flaB mutant F4 (R91, Arg to Ala) (natural protein) MAINVSTNVSAMTAQRYLNNAADGTQKSMERLSSGYKINSARDDAAGLQISNRLTSQSRGLDMAVRNANDGISIAQTAEGAMNETTNILQAMRDLSLQSANGSNSSSERQAIQEEVSALNDELNRIAETTSFGGNKLLNGSFGNKSFQIGADSGEAVMLSMSDMRSDTKAMGGKSYVATNGKAPDWSVTNATDLTLSYTDKQGEAREVTINAKAGDDLEEVATYINGQNGDIKASVGDEGKLQLFAANQKVSSDVTIGGGLGTEIGFAAGKDVTVKDINVTTVGGSQEAVALIDGALKAVDSQRASLGAFQNRFGHAISNLDNINENVNASRSRIKDTDYARETTQMTKSQILQQASTSVLAQAKQSPSAALSLLG	2.57 µM
flaB mutant F5 (D94, Asp to Ala) (natural protein) MAINVSTNVSAMTAQRYLNNAADGTQKSMERLSSGYKINSARDDAAGLQISNRLTSQSRGLDMAVRNANDGISIAQTAEGAMNETTNILQRMRALSLQSANGSNSSSERQAIQEEVSALNDELNRIAETTSFGGNKLLNGSFGNKSFQIGADSGEAVMLSMSDMRSDTKAMGGKSYVATNGKAPDWSVTNATDLTLSYTDKQGEAREVTINAKAGDDLEEVATYINGQNGDIKASVGDEGKLQLFAANQKVSSDVTIGGGLGTEIGFAAGKDVTVKDINVTTVGGSQEAVALIDGALKAVDSQRASLGAFQNRFGHAISNLDNINENVNASRSRIKDTDYARETTQMTKSQILQQASTSVLAQAKQSPSAALSLLG	46.3 µM
